Biological target: PHR1 S11A-His (UniProt Q94CL7 1-409, S11A)
Experiment: EMSA; without SnRK1; 10 mM Tris-HCl pH 8.0, 100 mM NaCl, 10% glycerol, 2 mM DTT, 0.05% NP-40; 0.5 ug protein in 30 ul, 22 C, 30 min; 4.5% acrylamide gel, 0.5x TBE
Settings: protein: recombinant; tags: His (pET28b(+)); chain copies: 2; label: 32P 5' end label on sense strand (T4 PNK); blunt

Sequence of PHR1 S11A-His (Q94CL7 whole entry S11A): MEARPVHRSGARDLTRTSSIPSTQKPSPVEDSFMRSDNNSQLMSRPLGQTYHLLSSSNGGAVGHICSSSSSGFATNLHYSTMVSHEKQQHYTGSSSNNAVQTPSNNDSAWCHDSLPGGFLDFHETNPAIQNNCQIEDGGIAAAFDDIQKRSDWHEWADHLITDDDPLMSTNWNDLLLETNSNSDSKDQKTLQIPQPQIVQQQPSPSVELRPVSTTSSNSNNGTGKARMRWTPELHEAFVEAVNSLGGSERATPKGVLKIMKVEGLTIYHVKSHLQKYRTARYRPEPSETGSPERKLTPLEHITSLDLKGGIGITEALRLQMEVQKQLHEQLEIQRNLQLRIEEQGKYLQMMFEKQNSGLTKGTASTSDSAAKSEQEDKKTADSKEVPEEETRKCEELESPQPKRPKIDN

B1: AtIPS1 P1BS probe (dsDNA)
DNA 1: CAATTTTGGTAACGGCATATTCCATCGGATGATCCAAAATTCTCAAAA
DNA 2: TTTTGAGAATTTTGGATCATCCGATGGAATATGCCGTTACCAAAATTG
- binding result: binds

Source: PMC10107491, “Phosphorylation of S11 in PHR1 negatively controls its transcriptional activity”
